Assay [1] addresses Myo1E (myosin 1E) (UniProt Q12965). Description: reciprocal co-IP of endogenous proteins, immunoblot. The settings on record: sites S202.
Assay [2] has as its target T1, recombinant SH3P2 (human, UniProt Q92882 1-214).
T1 sequence (looked up): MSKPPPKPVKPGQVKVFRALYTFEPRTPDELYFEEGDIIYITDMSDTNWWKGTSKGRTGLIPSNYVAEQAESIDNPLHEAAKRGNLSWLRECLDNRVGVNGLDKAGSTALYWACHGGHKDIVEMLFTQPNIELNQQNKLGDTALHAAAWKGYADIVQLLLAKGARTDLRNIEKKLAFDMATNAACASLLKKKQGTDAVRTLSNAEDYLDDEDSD
In words: pull-down.

With “SH3P2 (from UniProt Q92882) 10% FBS, 10 min”, in assay [1] (reference: serum-deprived cells), the “other: % of lysate Myo1E associated with SH3P2” value is “weaker; reference 78.4 ± 6.8”.
Turning to “SH3P2 (from UniProt Q92882) 10 µM PD184352, 4 h”, the “other: % of lysate Myo1E associated with SH3P2” value in assay [1] (reference: untreated cells) is “stronger; reference 6.1 ± 2.1”.

B1: GST-Myo1E(SH3) (domain or fragment, human, UniProt Q12965 1039-1108, looked up)
chain: AGGRPKPQPKPKPQVPQCKALYAYDAQDTDELSFNANDIIDIIKEDPSGWWTGRLRGKQGLFPNNYVTKI
For the molecule B1, the binding result in assay [2] is given as “binds”.

For the origin of these results see PMC4987290 (The Journal of Cell Biology, 2016).
